According to PMC4616025, “Identification of a phosphinothricin-resistant mutant of rice glutamine synthetase using DNA shuffling” (Scientific Reports, 2015):
Where a chain is given by its changes, count along the chain named. Names may count otherwise.

B1: OsGS1S (Oryza sativa Japonica Group) (protein)
chain: MASLTDLVNLNLSDTTEKIIAEYIWIGGSGMDLRSKARTLSGPVTDPSKLPKWNYDGSSTGQAPGEDSEVILYPQAIFKDPFRKGNNILVMCDCYTPAGEPIPTNKRHNAAKIFSSPEVASEEPWYGIEQEYTLLQKDINWPLGWPVGGFPGPQGPYYCGIGADKSFGRDIVDSHYKACLYAGINISGINGEVMPGQWEFQVGPSVGISAGDQVWVARYILERITEIAGVVVSFDPKPIPGDWNGAGAHTNYSTKSMRNDGGYEIIKSAIEKLKLRHKEHISAYGEGNERRLTGRHETADINTFSWGVANRGASVRVGRETEQNGKGYFEDRRPASNMDPYIVTSMIAETTIIWKP
notes: full-length, plant-codon-optimized synthetic gene (PTDS), vector pYM4087 with six-histidine tag, expressed in E. coli BL21(DE3), Ni-NTA purified; forward primer atggcttctctcaccga
B2: OsGS1S (Oryza sativa Japonica Group; R295K) (protein)
chain: B1 chain with R295K
notes: as for B1
B3: OsGS1S (Oryza sativa Japonica Group; A63E/R295K/T293A/V193A) (protein)
chain: B1 chain with A63E, V193A, T293A, R295K
notes: as for B1

Substrate: N[C@@H](CCC(=O)O)C(=O)O
Test: purified protein
Format: biochemical, Oryza sativa
Conditions: general assay: 5 mM ATP, 30 mM hydroxylamine, 50 mM MgCl2, 100 mM Tris-HCl pH 7.5, 37 °C, Km measured as in a cited method

Protein	Km [mM]	Km (stated gain) [mM]
B1	1.22 ± 0.011	–
B2	–	8.04 ± 0.015
B3	–	7.99 ± 0.021
